FRET efficiency data for two substances are collected here from publication PMC6349933.

Where only a bound is given, the exact number is not on record here.

Holding throughout (experiment): FRET or BRET; acceptor photobleaching FRET between ECFP and EYFP fusions in tobacco leaf epidermis; YFP bleached with a 514 nm laser; E = 100(A − B)/B
In general terms: Bioluminescence resonance energy transfer reports proximity on the nanometre scale.

One test deals with EYFP-ROP11 (Arabidopsis) (UniProt O82481).
Test [1] has as its target EYFP-ROP11G17V (Arabidopsis) (UniProt O82481).
In test [2] the target is EYFP-ROP11T22N (Arabidopsis) (UniProt O82481).
The target in test [3] is BDR1-ECFP (Arabidopsis thaliana).
Sequence of BDR1-ECFP (Arabidopsis thaliana) (main, as listed by the source): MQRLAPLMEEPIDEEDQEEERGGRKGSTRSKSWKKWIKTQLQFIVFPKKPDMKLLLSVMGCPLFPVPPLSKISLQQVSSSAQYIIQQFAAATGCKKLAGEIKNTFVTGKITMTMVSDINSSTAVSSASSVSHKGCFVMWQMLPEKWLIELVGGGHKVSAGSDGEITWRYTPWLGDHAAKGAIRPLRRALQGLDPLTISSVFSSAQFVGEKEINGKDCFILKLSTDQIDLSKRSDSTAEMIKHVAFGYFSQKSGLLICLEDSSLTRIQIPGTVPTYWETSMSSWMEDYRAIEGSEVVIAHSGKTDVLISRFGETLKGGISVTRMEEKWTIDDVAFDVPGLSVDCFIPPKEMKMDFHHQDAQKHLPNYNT

Take BDR1-ECFP (natural protein): the FRET efficiency was over 10% with EYFP-ROP11 (Arabidopsis), over 10% in test [1] and 0% in test [2].

EYFP-WAL (natural protein) gave an FRET efficiency in test [3] of 15%.
